Values quoted from earlier work, collected in article PMC11076006.

Target: TLR4 (Homo sapiens) (UniProt O00206)
UniProt O00206, sequence (O00206 24-839): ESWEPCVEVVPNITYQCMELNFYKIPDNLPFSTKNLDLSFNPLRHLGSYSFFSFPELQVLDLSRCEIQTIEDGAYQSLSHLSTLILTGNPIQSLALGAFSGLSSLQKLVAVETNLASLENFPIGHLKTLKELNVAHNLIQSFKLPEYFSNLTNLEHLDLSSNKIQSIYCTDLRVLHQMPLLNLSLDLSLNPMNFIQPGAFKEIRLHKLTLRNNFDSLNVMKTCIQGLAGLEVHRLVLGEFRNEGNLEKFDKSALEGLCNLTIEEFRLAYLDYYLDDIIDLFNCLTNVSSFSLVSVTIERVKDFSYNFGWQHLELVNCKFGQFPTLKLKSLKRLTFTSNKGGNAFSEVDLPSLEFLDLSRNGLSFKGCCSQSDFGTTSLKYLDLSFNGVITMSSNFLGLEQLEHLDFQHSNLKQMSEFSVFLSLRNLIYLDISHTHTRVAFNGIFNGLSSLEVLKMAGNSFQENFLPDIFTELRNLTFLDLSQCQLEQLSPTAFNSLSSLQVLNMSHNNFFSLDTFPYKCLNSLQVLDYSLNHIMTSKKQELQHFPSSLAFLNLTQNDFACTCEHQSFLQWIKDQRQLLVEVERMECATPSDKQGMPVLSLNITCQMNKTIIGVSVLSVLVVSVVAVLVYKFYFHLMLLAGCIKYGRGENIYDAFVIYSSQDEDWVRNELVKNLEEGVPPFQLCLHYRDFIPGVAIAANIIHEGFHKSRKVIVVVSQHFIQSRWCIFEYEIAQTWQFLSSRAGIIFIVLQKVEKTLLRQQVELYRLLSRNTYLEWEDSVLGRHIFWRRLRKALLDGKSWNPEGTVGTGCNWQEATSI

## S100A9 (from UniProt P06702)
  Kd: 3.2 nM
